{
  "source": "patent US7498306B2",
  "about": "“Peptides binding to the phosphatase 2A protein” (priority 2002, dated 2009)",
  "key": {"[1]": {"molecular_target": "T1, structural sub-unit A of PP2A (Homo sapiens, UniProt P30153)", "T1 construct": "made in house; host or cells: bacteria", "T1 sequence (P30153 whole entry)": "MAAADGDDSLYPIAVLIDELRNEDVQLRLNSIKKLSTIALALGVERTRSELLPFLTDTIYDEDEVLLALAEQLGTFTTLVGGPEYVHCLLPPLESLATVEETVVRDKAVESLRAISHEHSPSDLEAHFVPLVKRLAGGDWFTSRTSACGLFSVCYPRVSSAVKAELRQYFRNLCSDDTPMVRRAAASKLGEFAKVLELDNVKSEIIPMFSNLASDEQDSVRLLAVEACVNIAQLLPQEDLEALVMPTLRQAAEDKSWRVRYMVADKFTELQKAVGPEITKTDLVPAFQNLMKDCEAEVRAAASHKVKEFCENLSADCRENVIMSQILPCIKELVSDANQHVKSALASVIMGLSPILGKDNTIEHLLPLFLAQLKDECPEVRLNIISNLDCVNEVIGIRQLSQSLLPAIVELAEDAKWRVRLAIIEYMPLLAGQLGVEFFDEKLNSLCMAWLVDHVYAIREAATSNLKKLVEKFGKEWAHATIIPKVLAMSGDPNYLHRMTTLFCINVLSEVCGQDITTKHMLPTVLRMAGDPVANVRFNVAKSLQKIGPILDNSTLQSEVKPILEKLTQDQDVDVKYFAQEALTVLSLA", "assay": "peptide spot membrane binding, detected by western blot, with PP2A sub-unit A", "settings": "E4orf4 dodecapeptide membrane; 4 μg/ml purified protein overnight; antibody against protein A; FIG. 1", "text": "Recombinant protein A (structural sub-unit of PP2A) expressed in bacteria.\n(§1) We have mapped the binding sites between the E4orf4 proteins (coded by the canine adenovirus type 2) and the anti-apoptotic Bcl-2 protein with PP2A by using the <<peptides spot>> technique previously described (Frank et Overwing. (1996). Meth. Mol. Biol. 66, 149-169).\n(§2) This approach is based on the use of membranes containing thereon dodecapeptides representing the whole protein of interest (E4orf4 and Bcl-2) with a two amino acid gap per peptide.\n(§3) Each membrane is first saturated one hour at room temperature with TBS containing 5% skim milk powder and 3% BSA, then incubated overnight in the same buffer in the of 4 μg/ml of purified protein (sub-unit A of PP2A and PP2A1 holoenzyme).: Fifty six dodecapeptides covering the whole sequence of the E4orf4 protein and hundred-fifteen dodecapeptides covering the whole sequence of the Bcl-2 protein were synthesized and covalently bound to cellulosic membranes. […]"}, "[2]": {"molecular_target": "T2, trimeric ABC holoenzyme PP2A1 (Sus scrofa, UniProt P54612+Q29090)", "T2 construct": "The trimeric PP2A1 protein has been purified to homogeneity from porcine brain; from tissue; host or cells: porcine brain", "T2 sequence (P67776 whole entry, one chain of several, further chain)": "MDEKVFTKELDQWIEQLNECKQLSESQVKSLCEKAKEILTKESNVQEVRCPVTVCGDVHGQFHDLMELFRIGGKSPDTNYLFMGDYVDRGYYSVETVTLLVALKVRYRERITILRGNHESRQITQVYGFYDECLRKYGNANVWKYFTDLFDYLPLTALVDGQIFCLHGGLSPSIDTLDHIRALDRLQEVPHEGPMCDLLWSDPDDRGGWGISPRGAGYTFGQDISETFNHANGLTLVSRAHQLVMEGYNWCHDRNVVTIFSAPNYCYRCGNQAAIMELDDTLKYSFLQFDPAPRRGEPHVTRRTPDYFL", "T2 sequence (P54612 whole entry, one chain of several)": "as the sequence (P30153 whole entry) above, with S324T counted along it", "assay": "peptide spot membrane binding, detected by western blot, with trimeric PP2A1 holoenzyme", "parameters": "species or system porcine", "settings": "4 μg/ml purified protein overnight, pool of antibodies against A, B and C; for binding of E4orf4 peptide sequence to PP2A1 protein: E4orf4 dodecapeptide membrane, FIG. 1; for binding of Bcl-2 peptide sequence to PP2A1 holoenzyme: Bcl-2 dodecapeptide membrane, FIG. 2", "text": "The trimeric PP2A1 protein has been purified to homogeneity from porcine brain.\nas §1, §2\nEach membrane is first saturated one hour at room temperature with TBS containing 5% skim milk powder and 3% BSA, then incubated overnight in the same buffer in the of 4 μg/ml of purified protein (sub-unit A of PP2A and PP2A1 holoenzyme).: Fifty six dodecapeptides covering the whole sequence of the E4orf4 protein and hundred-fifteen dodecapeptides covering the whole sequence of the Bcl-2 protein were synthesized and covalently bound to cellulosic membranes.\nThe specific interaction of each purified protein (respectively the structural sub-unit A, the regulatory sub-unit of B55(B) or the trimeric ABC holoenzyme (named PP2A1) with a peptide sequence is shown by western blot, following incubation of the membrane with an antibody raised against the structural protein A (A), the regulatory sub-unit B (B) and with a pool of antibodies recognising the A, B, and C proteins of PP2A (ABC) (FIGS. 1 and 2)."}, "[3]": {"molecular_target": "T3, regulatory sub-unit B55 (B) of PP2A (Homo sapiens, UniProt P63151)", "T3 construct": "made in house; host or cells: bacteria", "T3 sequence (P63151 1-447)": "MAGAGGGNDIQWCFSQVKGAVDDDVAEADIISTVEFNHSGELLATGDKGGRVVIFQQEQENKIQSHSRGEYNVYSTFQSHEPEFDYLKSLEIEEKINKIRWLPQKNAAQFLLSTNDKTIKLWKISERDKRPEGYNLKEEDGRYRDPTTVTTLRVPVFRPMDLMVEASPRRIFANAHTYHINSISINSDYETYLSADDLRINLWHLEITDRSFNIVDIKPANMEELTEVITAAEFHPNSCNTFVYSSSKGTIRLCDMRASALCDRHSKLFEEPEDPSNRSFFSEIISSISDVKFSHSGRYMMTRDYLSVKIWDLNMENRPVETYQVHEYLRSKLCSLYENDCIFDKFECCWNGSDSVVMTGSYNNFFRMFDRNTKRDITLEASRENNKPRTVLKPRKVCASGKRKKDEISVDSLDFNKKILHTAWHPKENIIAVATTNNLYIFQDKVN", "assay": "peptide spot membrane binding, detected by western blot, with PP2A sub-unit B55", "settings": "antibody against sub-unit B", "text": "Recombinant protein B55 (regulatory sub-unit of PP2A) expressed in bacteria.\nas §1, §2, §3"}},
  "data": [
    {"substance": "AFRGRE VTVSLLEVFSFC (AFRGREVTVSLLEVFSFC) [site A3, E4orf4 residues 106-124, spot peptides 52 to 55]", "values": [
      {"measurement": "binding of E4orf4 peptide sequence to sub-unit A", "setting": "[1]", "value": "binding sites of E4orf4 with the sub-unit A"},
      {"measurement": "binding of E4orf4 peptide sequence to PP2A1 protein", "setting": "[2]", "value": "binding sites of E4orf4 with the PP2A1 protein"}
    ]},
    {"substance": "ARTSPLQTPAAPGAAAGPAL [site 1-B, Bcl-2 residues 67-86, spot peptides 33 to 37]", "values": [
      {"measurement": "binding of Bcl-2 peptide sequence to sub-unit B", "setting": "[3]; Bcl-2 dodecapeptide membrane, FIG. 2", "value": "binding site of Bcl-2 with the regulatory sub-unit B"}
    ]},
    {"substance": "LFDFSWLSLKTLLSLALVGA [site 2-ABC, Bcl-2 residues 209-228, spot peptides 105-109]", "values": [
      {"measurement": "binding of Bcl-2 peptide sequence to PP2A1 holoenzyme", "setting": "[2]", "value": "binding site of Bcl-2 with the PP2A1 holoenzyme"}
    ]},
    {"substance": "LGSMLE SPMEFLFDTI DDVTAS (LGSMLESPMEFLFDTIDDVTAS) [site A 1, E4orf4 residues 25-46, spot peptides 13 to 18]", "values": [
      {"measurement": "binding of E4orf4 peptide sequence to sub-unit A", "setting": "[1]", "value": "binding sites of E4orf4 with the sub-unit A"}
    ]},
    {"substance": "PLQTPAAPGAAAGPAL [site 1-ABC, Bcl-2 residues 71-86, spot peptides 35 to 37]", "values": [
      {"measurement": "binding of Bcl-2 peptide sequence to PP2A1 holoenzyme", "setting": "[2]", "value": "binding site of Bcl-2 with the PP2A1 holoenzyme"}
    ]},
    {"substance": "RELGSMLE SPMEFLFDTI DDVTAS (RELGSMLESPMEFLFDTIDDVTAS) [site B1, E4orf4 (canine adenovirus type 2) residues 23-46, spot peptides 12 to 18]", "values": [
      {"measurement": "binding of E4orf4 peptide sequence to sub-unit B", "setting": "[3]; E4orf4 dodecapeptide membrane, FIG. 1", "value": "binding site of E4orf4 with the structural sub-unit B"},
      {"measurement": "binding of E4orf4 peptide sequence to PP2A1 protein", "setting": "[2]", "value": "binding sites of E4orf4 with the PP2A1 protein"}
    ]}
  ]
}
